Measured values reported in paper PMC6053526, “Arabidopsis WRKY50 and TGA Transcription Factors Synergistically Activate Expression of PR1”.

What was measured:
GST-AtWRKY50-C [1] = biological target: T1, GST-AtWRKY50-C (Arabidopsis thaliana, UniProt Q8VWQ5 86-173); assay: EMSA; 5x buffer (3 uL in 14 uL): 20% glycerol, 5 mM MgCl2, 2.5 mM EDTA, 2.5 mM DTT, 250 mM NaCl, 50 mM Tris-HCl pH 7.5, 0.25 mg/ml poly(dI-dC); 0.5 ug protein; 10 min RT, then 60 min on ice with probe; gel at 4 C; details: protein: recombinant, tags: GST (N-term), label: 32P
T1 sequence (Q8VWQ5 86-173): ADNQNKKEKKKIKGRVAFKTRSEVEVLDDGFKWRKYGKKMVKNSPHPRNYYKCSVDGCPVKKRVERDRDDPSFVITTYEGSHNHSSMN

GST-AtWRKY50-C [2] = biological target: T1, GST-AtWRKY50-C; assay: EMSA; enhanced vs fragment A; 5x buffer (3 uL in 14 uL): 20% glycerol, 5 mM MgCl2, 2.5 mM EDTA, 2.5 mM DTT, 250 mM NaCl, 50 mM Tris-HCl pH 7.5, 0.25 mg/ml poly(dI-dC); 0.5 ug protein; 10 min RT, then 60 min on ice with probe; gel at 4 C; details: protein: recombinant; tags: GST (N-term); label: 32P; 5' overhang 3 nt (GGG) both ends
TGA2-His [3] = biological target: T2, TGA2-His (Arabidopsis thaliana, UniProt P43273 1-330); assay: EMSA; shift increased by full-length AtWRKY50; 5x buffer (3 uL in 14 uL): 20% glycerol, 5 mM MgCl2, 2.5 mM EDTA, 2.5 mM DTT, 250 mM NaCl, 50 mM Tris-HCl pH 7.5, 0.25 mg/ml poly(dI-dC); 0.5 ug protein; 10 min RT, then 60 min on ice with probe; gel at 4 C; details: protein: recombinant; tags: His; chain copies: 2; label: 32P; blunt
T2 sequence: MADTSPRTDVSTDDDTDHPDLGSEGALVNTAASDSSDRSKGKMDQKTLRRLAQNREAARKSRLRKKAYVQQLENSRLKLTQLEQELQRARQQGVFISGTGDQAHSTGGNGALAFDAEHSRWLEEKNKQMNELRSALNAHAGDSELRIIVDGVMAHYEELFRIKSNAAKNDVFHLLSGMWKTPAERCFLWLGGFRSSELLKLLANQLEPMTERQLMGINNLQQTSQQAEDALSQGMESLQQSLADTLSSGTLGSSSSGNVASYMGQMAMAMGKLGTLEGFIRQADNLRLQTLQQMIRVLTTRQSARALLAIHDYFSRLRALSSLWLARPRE

TGA2-His [4] = biological target: T2, TGA2-His; assay: EMSA; 5x buffer (3 uL in 14 uL): 20% glycerol, 5 mM MgCl2, 2.5 mM EDTA, 2.5 mM DTT, 250 mM NaCl, 50 mM Tris-HCl pH 7.5, 0.25 mg/ml poly(dI-dC); 0.5 ug protein; 10 min RT, then 60 min on ice with probe; gel at 4 C; details: protein: recombinant; tags: His; chain copies: 2; label: 32P; blunt
GST-AtWRKY50-C [5] = biological target: T1, GST-AtWRKY50-C; assay: EMSA; as wild type D; 5x buffer (3 uL in 14 uL): 20% glycerol, 5 mM MgCl2, 2.5 mM EDTA, 2.5 mM DTT, 250 mM NaCl, 50 mM Tris-HCl pH 7.5, 0.25 mg/ml poly(dI-dC); 0.5 ug protein; 10 min RT, then 60 min on ice with probe; gel at 4 C; details: protein: recombinant; tags: GST (N-term); label: 32P; 5' overhang 3 nt (GGG) both ends

B1: fragment D (dsDNA)
DNA 1: GATGTGGCGGCATATATTCTTCAGGACTTTTC
DNA 2: GAAAAGTCCTGAAGAATATATGCCGCCACATC
- binding result (GST-AtWRKY50-C [1]; blunt): binds

B2: Am1 (dsDNA)
DNA 1: GGGGGTGATCTATTGACTTTTCTCTACGTCACTAT
DNA 2: GGGATAGTGACGTAGAGAAAAGTCAATAGATCACC
- binding result (GST-AtWRKY50-C [2]): binds

B3: fragment B (dsDNA)
DNA 1: TTTCTCTACGTCACTATTTTACTTACGTCATA
DNA 2: TATGACGTAAGTAAAATAGTGACGTAGAGAAA
- binding result (TGA2-His [3]): binds

B4: Am2 (dsDNA)
DNA 1: GGGGGTGATCTATTGACTGCCTCTCTACGTCACTA
DNA 2: GGGTAGTGACGTAGAGAGGCAGTCAATAGATCACC
- binding result (GST-AtWRKY50-C [1]; 5' overhang 3 nt (GGG) both ends): no binding

B5: fragment C (dsDNA)
DNA 1: TTTTACTTACGTCATAGATGTGGCGGCATATA
DNA 2: TATATGCCGCCACATCTATGACGTAAGTAAAA
- binding result (TGA2-His [3]): binds

B6: fragment A (dsDNA)
DNA 1: GGTGATCTATTGACTGTTTCTCTACGTCACTA
DNA 2: TAGTGACGTAGAGAAACAGTCAATAGATCACC
- binding result (GST-AtWRKY50-C [1]; blunt): binds
- binding result (TGA2-His [4]): no binding

B7: Dm2 (dsDNA)
DNA 1: GGGGATGTGGCGGCATATATTCCCCAGGACTTTTC
DNA 2: GGGGAAAAGTCCTGGGGAATATATGCCGCCACATC
- binding result (GST-AtWRKY50-C [5]): binds
